Experimental data taken from paper PMC7829508, “Binding of Campylobacter jejuni FliW Adjacent to the CsrA RNA-Binding Pockets Modulates CsrA Regulatory Activity” (Frontiers in Microbiology, 2020).

Assays:
[1] = molecular target: FliW-His6 (C. jejuni) (UniProt Q0P9H9); assay: SPR; BIAcore T100; FliW-His6 amine-coupled to CM5 chip; CsrA-His6 injected at 0-500 nM, 30 μL/min, 180 s association, 600 s dissociation; 20 mM phosphate buffer, 0.05% Tween 20, pH 7.4; bivalent analyte model, constant of the first binding event (KD1)
[2] = molecular target: T1, FliW-His6 (C. jejuni, UniProt Q0P9H9 1-129); assay: as above; details: both partners purified
T1 construct: FliW of Campylobacter jejuni, fliW cloned into pET-20b(+) (pET-20b-FliW-His6, Li et al., 2018); also called C. jejuni FliW
T1 sequence (looked up): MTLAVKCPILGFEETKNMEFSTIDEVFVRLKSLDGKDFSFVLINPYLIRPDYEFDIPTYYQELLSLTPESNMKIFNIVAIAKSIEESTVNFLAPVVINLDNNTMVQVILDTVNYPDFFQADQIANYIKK

CsrA-N55A-His6 (from UniProt P0DPD4 1-75) (natural protein)
KD of the first ligand binding site (KD1, bivalent analyte model) [1]: 93 nM

B1: CsrA-WT-His6 (natural protein, C. jejuni 81-176, UniProt P0DPD4 1-75, looked up)
chain: MLILSRKENESIIIGEGIEIKVVQTGKGYAKIGIEAPKSLMILRKELVQQVKDENLHSVVQNDIKLDDLSKKLIK
notes: CsrA of Campylobacter jejuni, 75 amino acids; csrA cloned into pET-20b(+) (pET-20b-CsrA-His6, Fields et al., 2016); also called CsrA-His6; source: purified as described previously (El Abbar et al., 2019); not shown: His6, C-terminal, kept
KD of the first ligand binding site (KD1, bivalent analyte model) [2]: 9 nM

B2: CsrA-V51A-His6 (natural protein, C. jejuni 81-176, UniProt P0DPD4 1-75, looked up)
chain: MLILSRKENESIIIGEGIEIKVVQTGKGYAKIGIEAPKSLMILRKELVQQAKDENLHSVVQNDIKLDDLSKKLIK
notes: CsrA of Campylobacter jejuni, 75 amino acids, with V51A; point mutation cloned into pET20b (El Abbar et al., 2019); source: purified as described previously (El Abbar et al., 2019); not shown: His6, C-terminal, kept
KD of the first ligand binding site (KD1, bivalent analyte model) [2]: 52 nM
